Residue numbers refer to the chain shown, from its start. Names may count otherwise. “And” between values parts separate entries of the source, which are not always exact repeats. Equal entries are not always repeated. Each block holds one binder with its values, some of them ahead of it.
How the values were obtained:
[1] = biological target: T1, human plasma derived FXIa (human, UniProt P03951 19-625); test: cell-based or functional assay
[2] = biological target: T1, human plasma derived FXIa; test: cell-based or functional assay; remark: listed apart in the source
human kallikrein = human kallikrein (human, UniProt P03952 20-638); test: direct ELISA, panel 'Human Kallikrein': antigen coated on the plate, IgG titrated, fluorescence (RFU)
Protocol: (§1) For direct coating ELISAs, antigens were immobilized on 384-well Maxisorp™ microtiter plates over night at 4° C. using the concentrations as shown in Table 5. After blocking with 5% skim milk powder in PBS (80 μl/well), 20 μl/well of Fab-containing E. coli lysates or purified antibodies at various concentrations (typically 12 points of a 1:3 titration starting at 200 nM IgG or Fab, respectively) were added to plates and incubated for 1 h at room temperature. […] Fluorescence emission at 535 nm was recorded with excitation at 430 nm. Multiple wash steps with PBS+0.05% Tween20 were performed in between individual assay steps.

human pre-kallikrein = human pre-kallikrein (human, UniProt P03952 20-638); test: direct ELISA, panel 'Human Pre-kallikrein': antigen coated on the plate, IgG titrated, fluorescence (RFU)
Protocol: as §1

rabbit FXI = rabbit FXI (rabbit); test: direct ELISA, panel 'Rabbit FXI': antigen coated on the plate, IgG titrated, AP-anti-human F(ab)2 and AttoPhos fluorescence (RFU); half-maximal binding concentration of the fit, headed 'IC50' in the drawn table; unit taken from the axis 'Conc. [nM]'
Protocol: as §1

human plasma-derived FXI = biological target: T2, human plasma-derived FXI (human, UniProt P03951 19-625); test: direct ELISA, panel 'Human plasma FXI': antigen coated on the plate, IgG titrated, AP-anti-human F(ab)2 and AttoPhos fluorescence (RFU); half-maximal binding concentration of the fit, headed 'IC50' in the drawn table; unit taken from the axis 'Conc. [nM]'
T2 construct: This is the zymogen, which has two chains; also called human FXI; Factor XI
Protocol: as §1

[3] = biological target: T1, human plasma derived FXIa; test: direct ELISA, panel 'Human plasma FXIa': antigen coated on the plate, IgG titrated, AP-anti-human F(ab)2 and AttoPhos fluorescence (RFU); half-maximal binding concentration of the fit, headed 'IC50' in the drawn table; unit taken from the axis 'Conc. [nM]'
Protocol: as §1

cynomolgus monkey FXI = cynomolgus monkey FXI (cynomolgus monkey); test: direct ELISA, panel 'Cynomolgus monkey FXI': antigen coated on the plate, IgG titrated, AP-anti-human F(ab)2 and AttoPhos fluorescence (RFU); half-maximal binding concentration of the fit, headed 'IC50' in the drawn table; unit taken from the axis 'Conc. [nM]'
Protocol: as §1

[4] = biological target: T1, human plasma derived FXIa; test: solution equilibrium titration (SET), IgG at 20 pM, 1:1 binding model
Protocol: (§2) Experiments were carried out in polypropylene microtiter plates and with PBS (GIBCO 14190, pH 7.0-7.2) containing 0.5% BSA and 0.02% Tween20 as assay buffer. Serial dilutions of unlabeled FXIa antigen were prepared, starting with a concentration at least 10 times higher than the expected KD. Wells without antigen were used to determine Bₘₐₓ values; wells containing only assay buffer were used to determine background. After addition of an appropriate amount of binder (antibody concentration similar to or below the expected KD, 60 μL final volume), the mixture was incubated over night at RT.
(§3) MSD plates were coated with 1 μg/mL human plasma derived FXIa (30 μL per well). After washing the plate with PBS containing 0.05% Tween 20, the equilibrated samples were transferred to the plates and incubated for 20 min. Following incubation, 30 μL per well of the MSD-Sulfo-tag labeled detection antibody (anti-Flag M2 (Sigma) 1:2,000) was added to the washed MSD plate and incubated for 30 min at RT on an Eppendorf shaker (700 rpm).
The SET method described in Example 2 was used to determine the KD for AM4 (IgG), and compared to NOV1401, the germlined version of its parental antibody NOV1090.

[5] = biological target: T1, human plasma derived FXIa; test: solution equilibrium titration (SET), ECL read-out, purified Fab at 500 pM with titrated hFXIa; ± is the 95% confidence interval of the fit
Protocol: as §2, §3
After washing the MSD plate and adding 30 μL/well MSD Read Buffer T with surfactant, electrochemiluminescence signals were detected using a Sector Imager 6000 (Meso Scale Discovery, Gaithersburg, Md., USA).

[6] = biological target: T1, human plasma derived FXIa; test: SET screening compared with SET KD of NOV1090 Fab
[7] = biological target: T1, human plasma derived FXIa; test: SET KD estimates of Fabs compared with SET KD of NOV1090 Fab
[8] = biological target: T1, human plasma derived FXIa; test: SET screening, KD estimate from 5 data points, unpurified Fab in bacterial lysate; ± is the 95% confidence interval of the fit
Source text: To estimate Fab KDs, bacterial lysates were screened by SET. The SET screening method (see, e.g., Della Ducata et al (2015) J Biomol Screen; 20(10):1256-67) was generally performed as described above for the SET determination method. For ranking of the matured binders by SET based on the principles described by Haenel and coworkers (Haenel et al (2005) Anal Biochem; 339(1):182-4), a constant amount of diluted BEL extract (bacterial lysate) was equilibrated over night with different concentrations of antigen.
The mixture was then transferred to MSD plates, which were previously coated with antigen (1 μg/mL human plasma FXIa), and after incubation and washing, a suitable MSD-Sulfo-tag labeled detection antibody was added (anti-Flag M2, Sigma).

[9] = biological target: T1, human plasma derived FXIa; test: direct ELISA, panel 'Human plasma FXIa': antigen coated on the plate, IgG titrated, AP-anti-human F(ab)2 and AttoPhos fluorescence (RFU); the printed IC50 cell of this row is under recheck
Protocol: as §1

[10] = biological target: T1, human plasma derived FXIa; test: method not stated in the sentence (compared with the SET KD of NOV1090 Fab); NOV1401 Fab, cited for comparison with the SET KD of NOV1090 Fab

Chain of human kallikrein (P03952 20-638 limits assumed): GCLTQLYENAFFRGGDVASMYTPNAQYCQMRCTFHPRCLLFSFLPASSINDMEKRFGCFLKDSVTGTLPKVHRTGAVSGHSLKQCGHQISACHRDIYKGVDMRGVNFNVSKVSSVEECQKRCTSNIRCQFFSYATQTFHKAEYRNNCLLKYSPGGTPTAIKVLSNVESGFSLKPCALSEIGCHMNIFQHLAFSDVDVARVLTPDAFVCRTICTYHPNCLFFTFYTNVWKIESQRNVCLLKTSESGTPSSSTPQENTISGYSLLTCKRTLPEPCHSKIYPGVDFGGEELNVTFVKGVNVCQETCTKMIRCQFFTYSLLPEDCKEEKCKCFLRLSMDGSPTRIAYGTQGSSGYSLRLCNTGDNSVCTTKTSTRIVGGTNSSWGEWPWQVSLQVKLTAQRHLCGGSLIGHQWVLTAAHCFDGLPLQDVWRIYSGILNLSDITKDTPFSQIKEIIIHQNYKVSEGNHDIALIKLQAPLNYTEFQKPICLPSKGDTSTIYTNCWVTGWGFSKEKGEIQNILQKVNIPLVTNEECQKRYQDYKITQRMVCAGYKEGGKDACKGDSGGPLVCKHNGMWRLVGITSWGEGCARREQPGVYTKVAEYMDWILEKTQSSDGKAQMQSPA
Chain of human pre-kallikrein (P03952 20-638 limits assumed): as above
T2 sequence (P03951 19-625 C226S limits assumed): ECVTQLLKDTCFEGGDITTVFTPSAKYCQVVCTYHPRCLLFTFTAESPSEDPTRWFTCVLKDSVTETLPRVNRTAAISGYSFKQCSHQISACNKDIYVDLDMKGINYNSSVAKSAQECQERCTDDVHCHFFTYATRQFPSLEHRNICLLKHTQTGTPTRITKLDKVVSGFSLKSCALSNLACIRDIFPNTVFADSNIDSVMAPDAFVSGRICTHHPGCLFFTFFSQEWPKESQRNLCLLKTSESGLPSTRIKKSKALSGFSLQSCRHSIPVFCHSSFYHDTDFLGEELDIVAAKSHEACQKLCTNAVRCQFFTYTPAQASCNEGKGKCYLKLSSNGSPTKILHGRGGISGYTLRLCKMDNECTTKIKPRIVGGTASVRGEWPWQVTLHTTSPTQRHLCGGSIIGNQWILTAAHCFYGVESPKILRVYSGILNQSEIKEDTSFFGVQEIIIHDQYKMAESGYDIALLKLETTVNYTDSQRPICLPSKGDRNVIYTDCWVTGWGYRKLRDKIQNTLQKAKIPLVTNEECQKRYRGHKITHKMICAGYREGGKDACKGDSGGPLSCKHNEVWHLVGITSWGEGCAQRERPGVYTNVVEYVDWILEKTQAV
T1 sequence (P03951 19-625 C226S limits assumed): as above
Chain of cynomolgus monkey FXI (cynomolgus monkey) (P03951 other isoform, or with tags, fused parts or gaps): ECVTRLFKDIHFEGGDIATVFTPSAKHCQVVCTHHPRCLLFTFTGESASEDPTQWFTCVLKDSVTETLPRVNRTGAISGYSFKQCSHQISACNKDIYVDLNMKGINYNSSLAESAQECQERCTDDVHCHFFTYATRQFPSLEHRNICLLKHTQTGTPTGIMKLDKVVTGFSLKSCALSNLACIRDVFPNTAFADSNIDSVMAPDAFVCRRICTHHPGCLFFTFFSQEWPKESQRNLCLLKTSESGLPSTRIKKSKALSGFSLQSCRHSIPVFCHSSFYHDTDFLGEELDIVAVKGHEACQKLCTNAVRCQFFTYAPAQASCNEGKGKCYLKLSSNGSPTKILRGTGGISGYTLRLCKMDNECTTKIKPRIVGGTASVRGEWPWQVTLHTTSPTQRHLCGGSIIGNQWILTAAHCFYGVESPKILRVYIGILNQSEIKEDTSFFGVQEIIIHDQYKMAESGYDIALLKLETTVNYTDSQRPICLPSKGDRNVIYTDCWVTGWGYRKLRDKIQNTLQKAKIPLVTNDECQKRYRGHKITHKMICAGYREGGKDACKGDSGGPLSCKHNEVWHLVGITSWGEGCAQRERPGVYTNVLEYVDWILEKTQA

TGA IC50, fold lower compared to NOV1401 [1]: ~4 fold
TGA IC50 [2]: 6 nM
TGA Residual Thrombin [nM] (%) [2]: 180 nM and 37.5%
binding result (human kallikrein): no binding (tested: about 200 nM)
binding result (human pre-kallikrein): no binding (tested: about 200 nM)
IC50 (rabbit FXI): 0.463 nM
IC50 (human plasma-derived FXI): 0.215 nM
IC50 [3]: 0.274 nM
IC50 (cynomolgus monkey FXI): 0.448 nM
B1: AM1 (IgG) (antibody, V domains shown)
VH: QVQLLESGGGLVQPGGSLRLSCAASGFTFSTAAMSWVRQAPGKGLEWVSTIDSWGDDTDYADSVKGRFTISRDNSKNTLYLQMNSLRAEDTAVYYCARELSYLYSGYYFDYWGQGTLVTVSS
VL: DIVLTQPPSVSGAPGQRVTISCSGSSSNIGSNDVSWYQQLPGTAPKLLIYKNYNRPSGVPDRFSGSKSGTSASLAITGLQAEDEADYYCSAWDQRQFDVVFGGGTKLTVLG

TGA IC50 [2]: 24 nM
TGA Residual Thrombin [nM] (%) [2]: 159 nM and 34.4%
Kd [4]: 0.00312 nM
B2: NOV1401 (IgG) (antibody, V domains shown)
VH: B1 VH with T50G, D52S, S53G, W54S, D56S, D57S, D59Y
VL: B1 VL with D1Q, I2S, V10A, A13T, T77S, A81S
notes: Germlined version of NOV1090, human IgG1/lambda with D265A and P329A in the Fc

Kd [5]: 0.21 nM
B3: NOV1090 Fab (Fab, V domains shown)
VH: B1 VH with T50G, D52S, S53G, W54S, D56S, D57S, D59Y
VL: DIVLTQPPSVSGAPGQRVTISCSGSSSNIGSNDVSWYQQLPGTAPKLLIYKNYNRPSGVPDRFSGSKSGTSASLAITGLQAEDEADYYCSAWDQRQFDVVFGGGTKLTVL
notes: Purified HuCAL Fab, at least 90% monomer; It was detected with anti-Flag M2, so it carries a Flag tag; also called anti-FXI/FXIa Fab; parental NOV1090 Fab fragment

fold lower KD than NOV1090 Fab [6]: ~7 fold
fold increase in affinity over NOV1090 Fab [7]: ~10 fold
Kd [8]: 0.029 nM
B4: AM3 Fab (Fab, V domains shown)
VH: B1 VH with D52E, S53Y, W54S, G55S, D56Q, D57E, D59Y
VL: B3 VL
notes: Unpurified Fab in bacterial lysate (BEL extract), used in SET screening

fold lower KD than NOV1090 Fab [6]: ~7 fold
fold increase in affinity over NOV1090 Fab [7]: ~10 fold
Kd [8]: 0.032 nM
B5: AM1 Fab (Fab, V domains shown)
VH: B1 VH
VL: B3 VL
notes: as for B4

binding result (human kallikrein): no binding (tested: about 200 nM)
binding result (human pre-kallikrein): no binding (tested: about 200 nM)
EC50 (read off the curve) [9]: ~0.6 nM
IC50 (rabbit FXI): 0.504 nM
IC50 (human plasma-derived FXI): 0.392 nM
IC50 (cynomolgus monkey FXI): 0.58 nM
B6: NOV1090 (IgG) (antibody, V domains shown)
VH: B1 VH with T50G, D52S, S53G, W54S, D56S, D57S, D59Y
VL: B1 VL
notes: Non-germlined version of NOV1401, human IgG1/lambda; also called parental NOV1090; parental IgG

Kd [10]: 0.305 nM
B7: NOV1401 Fab (Fab, V domains shown)
VH: B1 VH with T50G, D52S, S53G, W54S, D56S, D57S, D59Y
VL: B3 VL with D1Q, I2S, V10A, A13T, T77S, A81S
notes: Fab of NOV1401, the germlined version of NOV1090 with identical CDRs

TGA IC50 [2]: 7 nM
TGA Residual Thrombin [nM] (%) [2]: 186 nM and 36.6%
binding result (human kallikrein): no binding (tested: about 200 nM)
binding result (human pre-kallikrein): no binding (tested: about 200 nM)
IC50 (rabbit FXI): 0.432 nM
IC50 (human plasma-derived FXI): 0.331 nM
IC50 [3]: 0.466 nM
IC50 (cynomolgus monkey FXI): 0.399 nM
B8: AM2 (IgG) (antibody, V domains shown)
VH: B1 VH with T50S, D52E, S53Y, W54Y, G55D, D56T, D59H
VL: B1 VL

fold lower KD than NOV1090 Fab [6]: ~7 fold
fold increase in affinity over NOV1090 Fab [7]: ~10 fold
Kd [8]: 0.027 nM
B9: AM2 Fab (Fab, V domains shown)
VH: B1 VH with T50S, D52E, S53Y, W54Y, G55D, D56T, D59H
VL: B3 VL
notes: as for B4
